Reference: patent US20260250737A1, “Engineered Luciferases and Luciferin Substrates” (Monod Bio, Inc., priority 2023, published 2026)
Substitutions are numbered along the chain they refer to.

B1: 5103 (protein)
chain: MTPEQRIANVRAFYAALASGDLEAAKALFDPGVTITLWDGTTFTSLEEFLAWFEKQFDASKDAKREIVDIEVEGDVVRVLVRLTYTKDGKEKVVDLLQLLKFV
B2: 5104 (protein)
chain: B1 chain with Q5E, R6I, I7R, E23A, V33T, D58K, D69S, I70L, V76T, K87V
B3: 5264 (protein)
chain: MTPEEIRANVEAFYAALASGDWEAARALFDPGVTITLWDGTTFTSVEEFRAWFEEQFKTSKDALREIVDLEVEGDVVRVLVRLTFVRDGKEEVVDLLQLFKFV
B4: 5281 (protein)
chain: B3 chain with W22L, R26K, A27S, A51K, D69S, L70M, V72I, V76T, E91V, V93E
B5: 5269 (protein)
chain: B3 chain with A8E, E11R, W22L, E23A, R26K, E55K, D69S, V76T
B6: 5270 (protein)
chain: B3 chain with E5A, R7I, E11K, E23A, E55A, K58E, D69S, L70M, V76T, D88N
B7: 5273 (protein)
chain: B3 chain with E5A, A8E, E11R, R26K, E55K, D69S
B8: 5285 (protein)
chain: B3 chain with A12R, E23A, A24T, R26E, E47A, D69S, V72I, E73N, V86T
B9: 5261 (protein)
chain: MTPEEIRANVRAFYAALASGDLAAARALFDPGVTITLWDGTTFTSVEEFRAWFEEQFQTSKDALREIESIEVEGDTVRVLVRLTFTRDGVTQEVDLLQLFKFV
B10: 5276 (protein)
chain: B3 chain with P3D, E11R, W22L, R26K, E55K, V68E, D69S, V76T, E92Q
B11: 5282 (protein)
chain: B3 chain with R7I, E11R, W22L, R26K, E55Q, K58Q, D69S, L70I, K90E, E92Q
B12: 5267 (protein)
chain: B9 chain with R7L, R26K, Q58K, E68V, I70A, V90K, T91V, Q92E
B13: 5262 (protein)
chain: B9 chain with I6R, R7I, A8E, L22W, E55K, Q58K, V90K, T91E, Q92E
B14: 5279 (protein)
chain: B9 chain with A8E, R26K, E68V, I70L, V72I, T76V, D88N, V90E, E93V
B15: 5274 (protein)
chain: B3 chain with E11R, E23A, R26E, E47A, E55A, K58Q, D69S, K90R, E91T, V93E
B16: 5271 (protein)
chain: B9 chain with A8E, A12N, A23E, R26K, Q58K, E68V, I70M, V72I, T91E, E93V
B17: 5266 (protein)
chain: B9 chain with R26K, E68V, I70L, E71R, V90K, T91V
B18: 5284 (protein)
chain: B9 chain with I6R, R7F, A15E, A23E, R26K, E68V, S69D, I70M, D88N, V90E
B19: 5280 (protein)
chain: B3 chain with E11R, E55K, K58Q, D69A, K90V, E92Q, V93E
B20: 5278 (protein)
chain: MTPEAIRENVEAFYAALASGDWEAAKALFDPGVTITLWDGTTFTSVEEFRAWFEEQFQTSKDALREIVSMRIEGDTVRVLVRLTFTRDGETQVVDLLQLFKFV
B21: 5286 (protein)
chain: MTPEERIANVRAFYAALASGDLEAAKALFDPGVTITLWDGTTFTSVEEFRAWFEEQFKTSKDALREIESIEVDGDTVRVLVRLTFVRDGEEKVVDLLQLFKFV
B22: 5268 (protein)
chain: MTPEEIRENVRRFYAALASGDLEAAKSLFDPGVTITLWDGTTFTSVEEFRAWFEEQFQTSKDALREIVSLEVEGDVVRVLVRLTFVRDGEVQEVDLLQLFKFV
B23: 5275 (protein)
chain: B22 chain with R7K, R11L, R12N, S27A, E55K, Q58K, L70M, V86T, E90K, Q92E
B24: 5263 (protein)
chain: MTPEEIRANVLAFYAALASGDLAAAEALFDPGVTITLWDGTTFTSVAEFRAWFEAQFQTSKDALREIVDMRVEGDVVRVLVRLTFVRDGEEQVVDLLQLFKFV
B25: 5277 (protein)
chain: B3 chain with E11R, W22L, R26K, A51K, D69E, L70M, E71R, V72I, E92Q
B26: 5265 (protein)
chain: B24 chain with E5Q, L11R, L22W, A55E, Q58K, D69S, R71E, V76T, Q92K
B27: 5272 (protein)
chain: B24 chain with I6R, R7I, L11R, L22W, A55Q, V68L, M70I, R71E, E90K
B28: 5283 (protein)
chain: MTPEEIRANVERFYAALASGDLETAKALFDPGVTITLWDGTTFTSVEEFRKWFEEQFETSKDALREIVSMEVEGDTVRVLVRLTFVRNGEEKVVDLLQLFKFV

System: SmLux
Test: Computationally generated LgLux variants expressed in E. coli, tested in lysates with SmLux and substrate 1c
Assay type: biochemical
Conditions: 50 uM substrate 1c; for Fold change upon SmLux peptide addition: 20 uM SmLux; for Baseline Signal (Normalized by expression): before SmLux peptide addition
Description: LgLux sequences were designed computationally, and their activity measured as depicted schematically in FIG. 45.
A library of the computationally generated LgLux variants were expressed in E. coli and tested in lysates. 20 uM of SmLux and 50 uM of substrate 1c was used for the screening.
LgLux_4039 sequence is as set forth in SEQ ID NO:2773. MBIO-5103 through MBIO-5124, MBIO-5261 through MBIO-5295, MBIO-5101, and MBIO-5102 (SEQ ID NO:2815-SEQ ID NO:2873, respectively) are computationally generated LgLux. The sequences and activity of these LgLux are shown below in Table 21.
MBIO-5358 and MBIO-5360 through MBIO-5381 (SEQ ID NO:2774-SEQ ID NO:2796, respectively) are computationally generated LgLux.

Row | Molecule | Fold change upon SmLux peptide addition | Baseline Signal (Normalized by expression)
1 | B1 | 0.94 | 193.2
2 | B2 | 0.97 | 180.8
3 | B3 | 1.26 | 127.6
4 | B4 | 3.02 | 125.6
5 | B5 | 1.1 | 137.2
6 | B6 | 1.25 | 135.2
7 | B7 | 1.01 | 140.4
8 | B8 | 1.26 | 188
9 | B9 | 2.16 | 176.8
10 | B10 | 6.45 | 125.6
11 | B11 | 1.18 | 131.8
12 | B12 | 1.42 | 130.6
13 | B13 | 2.29 | 139.6
14 | B14 | 1.12 | 111.8
15 | B15 | 1.07 | 125.2
16 | B16 | 10.11 | 145
17 | B17 | 1.09 | 129.8
18 | B18 | 5.16 | 186.8
19 | B19 | 1.07 | 129.2
20 | B20 | 1.61 | 121.2
21 | B21 | 33.33 | 196
22 | B22 | 1.05 | 133
23 | B23 | 1.35 | 122.8
24 | B24 | 1.38 | 137.4
25 | B25 | 1.19 | 120.6
26 | B26 | 2.8 | 126.4
27 | B27 | 11.86 | 141.4
28 | B28 | 1.14 | 141.4
